Results: the supplement of paper PMC10126150
± gives the standard deviation of the averaged measurements.

System: ATP
Assay: switch fluorescence ratio, 500 uM ATP over buffer (Cy3 cluster intensity, sum of 5 cycles each) (fold (ratio)); higher = stronger signal-on switching upon ATP binding; sequences stand for … in TCGTCGGCAGCGTCAGATGTGTATAAGAGACAGTTTTTTTTTTTTTTTTTTTTTTTTT…TC
Settings: aptamer strand: ATP DNA aptamer (quencher-CACCTGGGGGAGTATTGCGGAGGAAGG + anchor), 100 nM annealed; ATP concentration: 500 uM
Outline: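 Five buffer/ATP imaging cycles were run on Cy3-labelled switching-strand clusters on a modified Illumina MiSeq flow-cell, with NaOH stripping and re-annealing between cycles. In each cycle, clusters annealed to 100 nM quencher-labelled ATP aptamer were imaged in selection buffer, then after 15 min with 500 uM ATP at 22 °C. Per cluster, the fluorescence ratio is summed target-cycle over summed buffer-cycle Cy3 intensity, averaged per switch-domain sequence. Only clusters within 100-1000 RFU were kept.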
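Further: ATP exposure 15 min at 22 °C before imaging.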

GTTAGGGTTT and GTTAGTAGGT are within error of each other in switch fluorescence ratio: 0.996 ± 0.024 for the first, 0.994 ± 0.021 for the second.

GTTAGTGGTT and GTTAGTGTTT are within error of each other in switch fluorescence ratio: 1.02 ± 0.015 for the first, 1.01 ± 0.013 for the second.

GTTAGTTTGG and GTTATAAGGA are within error of each other in switch fluorescence ratio: 1 ± 0.015 for the first, 0.988 ± 0.019 for the second.

GTTATACGGG and GTTATCAGAG are within error of each other in switch fluorescence ratio: 1.01 ± 0.024 for the first, 0.977 ± 0.021 for the second.

GTTATCGGCG and GTTATGAGTC are within error of each other in switch fluorescence ratio: 1.01 ± 0.022 for the first, 1.02 ± 0.03 for the second.

GTTATGCGCC and GTTATGGGTA are within error of each other in switch fluorescence ratio: 1.02 ± 0.028 for the first, 0.989 ± 0.025 for the second.

GTTATTAGAG and GTTATTCATT are within error of each other in switch fluorescence ratio: 0.987 ± 0.026 for the first, 1.004 ± 0.0034 for the second.

GTTATTGCTC and GTTATTGCTT are within error of each other in switch fluorescence ratio: 1.12 ± 0.19 for the first, 0.98 ± 0.068 for the second.

GTTATTGTAT and GTTATTTGCT are within error of each other in switch fluorescence ratio: 0.977 ± 0.014 for the first, 0.988 ± 0.02 for the second.

GTTATTTTAG and GTTATTTTCG are within error of each other in switch fluorescence ratio: 0.988 ± 0.037 for the first, 0.987 ± 0.028 for the second.

Going from GTTATTTTGA to GTTCAAACGG, the switch fluorescence ratio falls from 1.01 ± 0.017 to 0.967 ± 0.018.

Compared with GTTCAACTCA, GTTCCCGGGA is higher in switch fluorescence ratio: 0.993 ± 0.012 for the first, 1.028 ± 0.0024 for the second.

GTTCCGCCTG and GTTCCGGGGT are within error of each other in switch fluorescence ratio: 1.094 ± 0.0043 for the first, 1.05 ± 0.05 for the second.

Compared with GTTCCTCGCT, GTTCGCGGGG is lower in switch fluorescence ratio: 2.77 ± 0.33 for the first, 1.06 ± 0.12 for the second.

GTTCGGAATT and GTTCGGCGAT are the same in switch fluorescence ratio: 1.031 ± 0.0013 for the first, 1.03 ± 0.013 for the second.

Compared with GTTCGGGCAT, GTTCGGGGTA is lower in switch fluorescence ratio: 1.07 ± 0.026 for the first, 0.995 ± 0.031 for the second.

GTTCTCATTT and GTTCTGAGGT are within error of each other in switch fluorescence ratio: 0.995 ± 0.025 for the first, 1 ± 0.0014 for the second.

GTTCTTCAGA and GTTCTTGAAA are within error of each other in switch fluorescence ratio: 0.9705 ± 0.0056 for the first, 0.977 ± 0.036 for the second.

GTTCTTTGT and GTTGAACCGG are within error of each other in switch fluorescence ratio: 0.9894 ± 0.0093 for the first, 0.988 ± 0.02 for the second.

GTTGAATATG and GTTGACGGTA are the same in switch fluorescence ratio: 1.01 ± 0.029 for the first, 1.01 ± 0.015 for the second.

GTTGACTCAT and GTTGAGAGTG are within error of each other in switch fluorescence ratio: 0.97827 ± 0.00051 for the first, 1 ± 0.049 for the second.

GTTGAGCGTC and GTTGAGGGGG are within error of each other in switch fluorescence ratio: 0.955 ± 0.032 for the first, 1.01 ± 0.047 for the second.

GTTGAGGGGT and GTTGATTCTA are within error of each other in switch fluorescence ratio: 0.993 ± 0.027 for the first, 0.988 ± 0.034 for the second.

GTTGATTTGC and GTTGATTTTT are within error of each other in switch fluorescence ratio: 1.02 ± 0.089 for the first, 0.982 ± 0.018 for the second.

GTTGCAAAAA and GTTGCACTGG are within error of each other in switch fluorescence ratio: 1.18 ± 0.32 for the first, 1.01 ± 0.011 for the second.

GTTGCAGTCA and GTTGCATTCA are within error of each other in switch fluorescence ratio: 0.949 ± 0.042 for the first, 1.01 ± 0.033 for the second.

GTTGCGAGGG and GTTGCTAGTA are within error of each other in switch fluorescence ratio: 1.02 ± 0.016 for the first, 1 ± 0.011 for the second.

GTTGCTATGA and GTTGCTGTCA are within error of each other in switch fluorescence ratio: 1.02 ± 0.017 for the first, 1.06 ± 0.043 for the second.

GTTGGAATCG and GTTGGAATTT are within error of each other in switch fluorescence ratio: 0.991 ± 0.018 for the first, 0.966 ± 0.023 for the second.

First: GTTGGACTGG
Second: GTTGGAGCAT
The switch fluorescence ratio of the first is lower: 1.01 ± 0.037 for the first, 1.086 ± 0.0023 for the second.

GTTGGAGGCG and GTTGGATGGT are within error of each other in switch fluorescence ratio: 0.969 ± 0.049 for the first, 0.964 ± 0.019 for the second.

GTTGGATTAG and GTTGGCATTA are within error of each other in switch fluorescence ratio: 0.993 ± 0.017 for the first, 1.03 ± 0.023 for the second.

GTTGGGAAGA and GTTGGGAGCA are within error of each other in switch fluorescence ratio: 1.01 ± 0.034 for the first, 1.004 ± 0.0072 for the second.

GTTGGGAGGT and GTTGGGATTC are within error of each other in switch fluorescence ratio: 0.982 ± 0.015 for the first, 0.986 ± 0.049 for the second.

GTTGGGGCGT and GTTGGGGGAA are within error of each other in switch fluorescence ratio: 0.97 ± 0.044 for the first, 0.983 ± 0.023 for the second.

GTTGGGGTAA and GTTGGGGTGG are within error of each other in switch fluorescence ratio: 0.9927 ± 0.0067 for the first, 1.04 ± 0.12 for the second.

GTTGGGTACT and GTTGGGTTCC are within error of each other in switch fluorescence ratio: 0.998 ± 0.037 for the first, 1.02 ± 0.02 for the second.

GTTGGGTTCT and GTTGGGTTGC are within error of each other in switch fluorescence ratio: 1.03 ± 0.021 for the first, 0.999 ± 0.018 for the second.

GTTGGTAATT and GTTGGTATGA are within error of each other in switch fluorescence ratio: 0.987 ± 0.015 for the first, 0.989 ± 0.017 for the second.

GTTGGTATT and GTTGGTCCTT are within error of each other in switch fluorescence ratio: 1.01 ± 0.024 for the first, 0.9928 ± 0.003 for the second.

First: GTTGGTCGGG
Second: GTTGGTGTGT
The switch fluorescence ratio of the first is higher: 1.02 ± 0.037 for the first, 0.9667 ± 0.0071 for the second.

GTTGTAATGG and GTTGTAGCTC are within error of each other in switch fluorescence ratio: 1.01 ± 0.049 for the first, 1 ± 0.023 for the second.

First: GTTGTAGTGT
Second: GTTGTATCAT
The switch fluorescence ratio of the first is higher: 1.011 ± 0.0011 for the first, 0.98846 ± 0.00088 for the second.

GTTGTATTGT and GTTGTCAATG are within error of each other in switch fluorescence ratio: 0.999 ± 0.019 for the first, 0.974 ± 0.021 for the second.

GTTGTCATGT and GTTGTCCGGG are within error of each other in switch fluorescence ratio: 0.991 ± 0.017 for the first, 1 ± 0.027 for the second.

GTTGTGGTCA and GTTGTGGTTG are within error of each other in switch fluorescence ratio: 0.9771 ± 0.0067 for the first, 0.987 ± 0.035 for the second.

GTTGTGTGAT and GTTGTGTGTT are within error of each other in switch fluorescence ratio: 0.982 ± 0.027 for the first, 0.975 ± 0.016 for the second.

GTTGTTGAGG and GTTGTTGGGG are within error of each other in switch fluorescence ratio: 0.999 ± 0.012 for the first, 0.974 ± 0.043 for the second.

GTTGTTGTTG and GTTTAACCCG are within error of each other in switch fluorescence ratio: 0.996 ± 0.045 for the first, 1.002 ± 0.0033 for the second.

GTTTAAGCGG and GTTTAAGGGG are within error of each other in switch fluorescence ratio: 0.969 ± 0.034 for the first, 1.005 ± 0.0068 for the second.

First: GTTTAATGTT
Second: GTTTAATTGA
The switch fluorescence ratio of the first is higher: 1.023 ± 0.0022 for the first, 0.9676 ± 0.0018 for the second.

GTTTACAAGT and GTTTACGGGG are within error of each other in switch fluorescence ratio: 0.992 ± 0.027 for the first, 0.997 ± 0.041 for the second.

GTTTACTGAA and GTTTACTTAG are within error of each other in switch fluorescence ratio: 1.01 ± 0.018 for the first, 1.024 ± 0.005 for the second.

Compared with GTTTACTTAT, GTTTAGAATT is lower in switch fluorescence ratio: 1.037 ± 0.0024 for the first, 1.004 ± 0.01 for the second.

GTTTAGGGGG and GTTTATAAAG are within error of each other in switch fluorescence ratio: 0.994 ± 0.018 for the first, 0.9899 ± 0.0023 for the second.

First: GTTTATCTGC
Second: GTTTATGCAG
The switch fluorescence ratio of the first is higher: 1.02 ± 0.025 for the first, 0.968 ± 0.017 for the second.

Going from GTTTATGTAC to GTTTATTCGG, the switch fluorescence ratio falls from 1.07 ± 0.065 to 0.981 ± 0.019.

First: GTTTCCAGGG
Second: GTTTCCGTTG
The switch fluorescence ratio of the first is higher: 1.16 ± 0.023 for the first, 0.98414 ± 0.00058 for the second.

GTTTCGCAGG and GTTTCGCGGT are within error of each other in switch fluorescence ratio: 1.01 ± 0.015 for the first, 1.04 ± 0.067 for the second.

GTTTCTGTGT and GTTTGAGACG are within error of each other in switch fluorescence ratio: 0.956 ± 0.012 for the first, 0.903 ± 0.044 for the second.

GTTTGAGGGA and GTTTGAGTTG are within error of each other in switch fluorescence ratio: 0.982 ± 0.035 for the first, 1.01 ± 0.038 for the second.

GTTTGATAAA and GTTTGATGAA are within error of each other in switch fluorescence ratio: 0.981 ± 0.034 for the first, 0.994 ± 0.084 for the second.

GTTTGCGTAT and GTTTGGAGAA are within error of each other in switch fluorescence ratio: 1.02 ± 0.048 for the first, 1.01 ± 0.034 for the second.

GTTTGGCTTT and GTTTGGGAAC are the same in switch fluorescence ratio: 1.015 ± 0.0012 for the first, 1.02 ± 0.019 for the second.

Going from GTTTGGGGCC to GTTTGGGTGA, the switch fluorescence ratio falls from 1.057 ± 0.01 to 1 ± 0.026.

GTTTGGGTGG and GTTTGGTATG are within error of each other in switch fluorescence ratio: 0.9979 ± 0.0065 for the first, 0.988 ± 0.017 for the second.

First: GTTTGGTCTT
Second: GTTTGGTTTT
The switch fluorescence ratio of the first is lower: 0.95 ± 0.017 for the first, 0.99 ± 0.014 for the second.

Compared with GTTTGTCCTG, GTTTGTGAAC is lower in switch fluorescence ratio: 1.007 ± 0.0071 for the first, 0.9821 ± 0.006 for the second.

GTTTGTGGAG and GTTTGTGGGT are within error of each other in switch fluorescence ratio: 0.9683 ± 0.0071 for the first, 0.977 ± 0.011 for the second.

GTTTGTGGTG and GTTTGTGTTG are within error of each other in switch fluorescence ratio: 1.01 ± 0.017 for the first, 0.993 ± 0.017 for the second.

GTTTGTTATG and GTTTGTTCGG are within error of each other in switch fluorescence ratio: 0.999 ± 0.042 for the first, 0.995 ± 0.015 for the second.

GTTTGTTTAC and GTTTTAAGTG are within error of each other in switch fluorescence ratio: 0.987 ± 0.014 for the first, 0.981 ± 0.034 for the second.

GTTTTAATTA and GTTTTAGCGC are within error of each other in switch fluorescence ratio: 1.01 ± 0.021 for the first, 1 ± 0.049 for the second.

GTTTTAGGGA and GTTTTATCAG are within error of each other in switch fluorescence ratio: 0.979 ± 0.037 for the first, 0.961 ± 0.039 for the second.

GTTTTATGCG and GTTTTATTCT are within error of each other in switch fluorescence ratio: 1.02 ± 0.035 for the first, 1 ± 0.023 for the second.

GTTTTATTGA and GTTTTCATGG are within error of each other in switch fluorescence ratio: 0.986 ± 0.015 for the first, 0.996 ± 0.013 for the second.

In the case of GTTTTCCGGG, the switch fluorescence ratio is reported as 1.01 ± 0.027.
